Data set [1] concerns the target T1, TtrR (09830, response regulator) (UniProt Q87N66).
T1 sequence: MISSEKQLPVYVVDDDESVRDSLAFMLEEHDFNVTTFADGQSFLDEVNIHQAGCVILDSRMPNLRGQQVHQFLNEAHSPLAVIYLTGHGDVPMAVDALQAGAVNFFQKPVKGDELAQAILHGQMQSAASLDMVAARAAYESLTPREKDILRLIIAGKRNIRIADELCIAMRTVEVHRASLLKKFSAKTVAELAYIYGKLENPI
Kind of data set: EMSA.

A further data set has as its target T2, TtrBCA (Vibrio parahaemolyticus, UniProt Q87N61).
T2 construct: gene VP2014; native complex in V. parahaemolyticus cells; wild type, ttrA deletion and pBAD24-complemented strains; with Tetrathionate reductase subunit B; Tetrathionate reductase subunit C
As to the kind of experiment: HPLC of cultures, wild type vs deletion and complemented strains. To be noted: M9 medium, 10 mM sodium tetrathionate, micro-aerobic, 37 °C; whole-cell cultures; reduction to thiosulfate. It counts as cell-based.

T2 sequence (Q87N62 entry or part of it): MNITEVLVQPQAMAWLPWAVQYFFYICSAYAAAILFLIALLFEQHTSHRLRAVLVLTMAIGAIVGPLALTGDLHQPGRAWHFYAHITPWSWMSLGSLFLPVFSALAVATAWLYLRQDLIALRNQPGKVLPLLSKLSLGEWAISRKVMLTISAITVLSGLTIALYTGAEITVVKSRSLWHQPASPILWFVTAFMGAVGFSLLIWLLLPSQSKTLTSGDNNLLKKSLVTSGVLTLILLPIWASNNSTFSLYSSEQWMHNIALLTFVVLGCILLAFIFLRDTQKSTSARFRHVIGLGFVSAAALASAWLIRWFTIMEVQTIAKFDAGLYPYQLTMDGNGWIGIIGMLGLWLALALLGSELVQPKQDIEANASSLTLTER
T2 sequence (Q87N63 entry or part of it, further chain): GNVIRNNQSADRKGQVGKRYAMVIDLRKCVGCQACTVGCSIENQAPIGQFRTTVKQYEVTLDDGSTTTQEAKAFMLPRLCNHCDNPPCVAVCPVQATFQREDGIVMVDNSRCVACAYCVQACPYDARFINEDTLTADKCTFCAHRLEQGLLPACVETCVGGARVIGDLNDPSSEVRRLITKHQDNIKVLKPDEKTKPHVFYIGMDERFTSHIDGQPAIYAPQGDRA
T2 sequence (Q87N61 entry or part of it): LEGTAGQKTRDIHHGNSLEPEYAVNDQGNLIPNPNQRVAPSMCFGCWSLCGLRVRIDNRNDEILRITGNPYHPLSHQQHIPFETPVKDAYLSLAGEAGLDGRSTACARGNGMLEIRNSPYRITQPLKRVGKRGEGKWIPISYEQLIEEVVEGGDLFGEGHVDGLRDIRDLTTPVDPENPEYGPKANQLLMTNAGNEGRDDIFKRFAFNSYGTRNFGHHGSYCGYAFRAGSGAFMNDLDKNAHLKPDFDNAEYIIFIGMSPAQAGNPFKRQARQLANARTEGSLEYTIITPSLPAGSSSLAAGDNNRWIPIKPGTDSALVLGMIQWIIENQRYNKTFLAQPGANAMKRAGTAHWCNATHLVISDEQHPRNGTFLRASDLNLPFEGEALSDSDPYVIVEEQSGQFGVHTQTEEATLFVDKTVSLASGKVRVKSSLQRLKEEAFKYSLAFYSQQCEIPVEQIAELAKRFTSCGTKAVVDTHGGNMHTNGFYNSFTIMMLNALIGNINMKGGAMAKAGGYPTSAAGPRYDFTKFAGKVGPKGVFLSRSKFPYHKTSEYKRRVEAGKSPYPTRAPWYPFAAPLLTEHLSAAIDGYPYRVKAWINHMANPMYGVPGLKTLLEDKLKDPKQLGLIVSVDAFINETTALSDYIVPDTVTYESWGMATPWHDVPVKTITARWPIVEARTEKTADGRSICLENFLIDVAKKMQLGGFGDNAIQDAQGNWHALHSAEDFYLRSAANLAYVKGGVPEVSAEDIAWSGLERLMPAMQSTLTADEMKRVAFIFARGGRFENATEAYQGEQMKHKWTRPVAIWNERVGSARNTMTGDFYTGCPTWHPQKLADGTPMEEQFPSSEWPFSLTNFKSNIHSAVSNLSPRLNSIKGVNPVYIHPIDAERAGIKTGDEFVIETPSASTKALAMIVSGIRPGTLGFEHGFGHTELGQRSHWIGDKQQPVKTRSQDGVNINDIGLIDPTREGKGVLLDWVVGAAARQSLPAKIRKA

For the molecule “CAATACCTGCAATGGGGACCAACGCGGCACCCGCTGTAATGGCGCTAAGAAAGCGACGTTTGGTGGAATCCATAACTCACCTGCTGTTAGTTGAATTTGAACTGACTGATTCCATTGTGAGAAATGCGCTGCGACGTCGATATAGTGGATTTCCACATACCCAGATCAAAGTTGATCTAAAACAAATGTGGTTTACGGAAGGTAGCTGTTATTCTTGCTTCATTATTTTCGAAGGAACGATTCGACTCATC (double strand) [PttrS (ttrRS promoter)]”, the binding result in data set [1] is listed as “binds”.
The same measure, in the same setting: for “GCTGACTCACTTTAATTGTTATTAATATCTCCAAGTGTCTACTGTGATAGTGACTTGGGTGCTGTATTGTCGGCTTTGTCAATAACTAAAGGTATTATATTTAGAGGATGTGAAGAGCTGCTAAATGGCAGCTCTTCAGGTTTGGTTGTCTACTAAGCTTTGCGGATTTTGGCTGGTAATGATTGGCGAGCAGCGGCTCCTACCACCCAATCTAACAACACGCCTTTCCCTTCTCGG (double strand) [PtsdB-Δbox]” the value was “no binding”; for “GCTGACTCACTTTAATTGTTATTAATATCTCCAAGTGTCTACTGTGATAGTGACTTGGGTGCTGTATTGTCGGCTTTGTCAATAACTAAAGGTATTGTGGATTTCCACATATTTAGAGGATGTGAAGAGCTGCTAAATGGCAGCTCTTCAGGTTTGGTTGTCTACTAAGCTTTGCGGATTTTGGCTGGTAATGATTGGCGAGCAGCGGCTCCTACCACCCAATCTAACAACACGCCTTTCCCTTCTCGG (double strand) [P09855 (PtsdB, tsdBA promoter)]”, “binds”.
Still for that read-out and setting: for “CGCCCTGAGCTAAAGATGCAAAGACAACCAAGCACAGAATCCAAAACTGAAGCAACCGTGGCGTTTTGTTCATGATGAGTCGAATCGTTCCTTCGAAAATAATGAAGCAAGAATAACAGCTACCTTCCGTAAACCACATTTGTTTTAGATCAACTTTGATCTGGGTATTATATCGACGTCGCAGCGCATTTCTCACAATGGAATCAGTCAGTTCAAATTCAACTAACAGCAGGTGAGTT (double strand) [PttrB-Δbox]” the value was “no binding”.
In the case of `O=S(=O)(O)SSS(=O)(=O)O` [tetrathionate], the “HPLC of cultures, wild type vs deletion and complemented strains” value on TtrBCA is recorded as “confirming that ttrBCA is essential for tetrathionate reduction”.
On to “CGCCCTGAGCTAAAGATGCAAAGACAACCAAGCACAGAATCCAAAACTGAAGCAACCGTGGCGTTTTGTTCATGATGAGTCGAATCGTTCCTTCGAAAATAATGAAGCAAGAATAACAGCTACCTTCCGTAAACCACATTTGTTTTAGATCAACTTTGATCTGGGTATGTGGAAATCCACTATATCGACGTCGCAGCGCATTTCTCACAATGGAATCAGTCAGTTCAAATTCAACTAACAGCAGGTGAGTT (double strand) [PttrB (ttrBCA promoter)]”, for which, in data set [1], the binding entry is listed as “binds”.

(Values after publication PMC11293645, “The two-component system TtrRS boosts Vibrio parahaemolyticus colonization by exploiting sulfur compounds in host gut” (PLOS Pathogens, 2024).)
